Results on 2 substances are retold here after paper doi:10.1101/2022.10.18.512691.

For assay [1], the target named is APS-kinase from Methanothermococcus thermolithotrophicus (Methanothermococcus thermolithotrophicus). Put plainly: crystal structure.
The target in assay [2] is ATP-sulfurylase from Methanothermococcus thermolithotrophicus (Methanothermococcus thermolithotrophicus). Put plainly: SEC. (In general: In gel filtration, larger molecules generally elute earlier.)
For assay [3] the target is unchanged. Put plainly: crystal structure.

What is called stoichiometry N is the number of molecules, sites or subunits per partner or assembly.

Take “APS-kinase from Methanothermococcus thermolithotrophicus (enzyme)”: the stoichiometry N in assay [1] was 2.

Turning to “ATP-sulfurylase from Methanothermococcus thermolithotrophicus (enzyme)”, the stoichiometry N in assay [2] and in assay [3] was 2 in each case.
